Earlier results on one substance are cited in publication PMC8671346.

The target in data set [1] is GM-CSF receptor alpha chain (GMRα) (Homo sapiens) (UniProt P15509).
In data set [2] the target is GM-CSF receptor (GMRα/βc) (Homo sapiens) (UniProt P15509).

For the substance GM-CSF (from UniProt P04141), the results for the Kd in data set [1] and in data set [2] were 5 nM and 0.1 nM, respectively.

As a reminder, the Kd is the constant that tells how readily two partners part at equilibrium.
